Results reported in patent publication US20180127505A1, “HUMANIZED ANTI-AXL ANTIBODIES AND THEIR CONJUGATES” (MEDIMMUNE LIMITED, priority 2015, published 2018).

T1: human Axl-Strep-His (Homo sapiens, UniProt P30530, Q764R)
T1 construct: Strep; His; host or cells: transiently transfected CHO cells
T1 sequence (P30530 26-894 Q764R): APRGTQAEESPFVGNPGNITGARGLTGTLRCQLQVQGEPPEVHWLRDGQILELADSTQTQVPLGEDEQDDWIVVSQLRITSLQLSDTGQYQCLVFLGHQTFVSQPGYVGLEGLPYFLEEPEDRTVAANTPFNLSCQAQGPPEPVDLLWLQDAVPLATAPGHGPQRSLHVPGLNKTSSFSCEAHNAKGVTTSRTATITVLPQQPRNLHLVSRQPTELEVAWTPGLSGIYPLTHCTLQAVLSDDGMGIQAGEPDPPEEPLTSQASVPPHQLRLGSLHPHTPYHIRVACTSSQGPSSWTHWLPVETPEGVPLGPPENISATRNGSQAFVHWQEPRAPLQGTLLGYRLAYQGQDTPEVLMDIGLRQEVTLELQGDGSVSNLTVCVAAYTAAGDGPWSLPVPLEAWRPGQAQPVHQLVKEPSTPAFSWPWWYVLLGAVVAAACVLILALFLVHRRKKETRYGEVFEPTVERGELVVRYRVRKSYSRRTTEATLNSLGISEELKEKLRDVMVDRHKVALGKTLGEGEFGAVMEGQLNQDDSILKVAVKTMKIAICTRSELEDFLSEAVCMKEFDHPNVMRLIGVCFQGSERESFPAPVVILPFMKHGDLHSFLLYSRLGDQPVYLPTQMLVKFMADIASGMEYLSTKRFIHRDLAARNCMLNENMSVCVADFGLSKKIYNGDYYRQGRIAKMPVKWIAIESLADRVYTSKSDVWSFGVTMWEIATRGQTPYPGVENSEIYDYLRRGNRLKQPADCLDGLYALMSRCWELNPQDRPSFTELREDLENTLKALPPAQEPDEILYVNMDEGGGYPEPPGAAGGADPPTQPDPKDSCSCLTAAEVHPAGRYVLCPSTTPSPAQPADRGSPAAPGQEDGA


Tests used:
[1] = target: T1, human Axl-Strep-His; assay: SPR measurement of antibody affinity, AXL-Strep-His antigen; assay type: binding; details: for ka, AXL-Strep-His antigen / kd, AXL-Strep-His antigen / Kd: SPR Biacore T200, 25 C, bivalent ligand model (Ab1: heterogeneous ligand model); for affinity for Axl-Strep-His compared with Ab1: SPR; for Kd: read-out: KD1, AXL-Strep-His antigen
Method: (§1) Protocol 4A: SPR Measurement of Antibody Affinity
(§2) • 1. Sensor Chip CM5 Biacore; Cat. # BR-1000-14 • 2. Amine Coupling Kit (EDC, NHS, ethanolamine-HCl) Biacore; Cat. # BR-1000-50 • 3. Immobilization buffer (10 mM Na acetate, pH 4.0) Biacore; Cat. # BR-1003-49 • 4. 50 mM NaOH Biacore; Cat. # BR-1003-58 • 5. Running buffer (PBS/Tween20 0.05% v/v) • 6. Biacore T200 GE Healthcare • 7. Regeneration solution: 10 mM HCl, 1 M NaCl
(§3) • Activate flow cell 2 with NHS-EDC 420s at 5 μl/min, then inject human AxI-Strep-His (Evitria) (10 μg/mL in 10 mM sodium acetate, pH 4.0) to achieve a coupling of […]. Block with ethanolamine for 420s. Repeat the process for flow cell 1 but with no antigen to create a reference flow cell. 12RU AXL fusion protein was coated. • For the Fc fusion, Human Axl-Fc chimera (R&D Systems #154-AL) (5 μg/mL in 10 mM sodium acetate, pH 4.5) was used with the above protocol. 16RU of AXL-Fc was coated. Protocol with AXL-Strep-His Antigen • Serial 10x dilutions of antibody, from 3000 nM, were made in PBS/Tween20. 2x regeneration cycles were used with 10 mM HCl, 1 M NaCl for 30s at 30 μl/min for both cycles. Start-up solution was PBS/Tween20 and set to 3 cycles. • Sample injection parameters were 120s at 30 μl/min, with 600s dissociation time. • Prime and normalise detector were run before sample application with experimental conditions 25 C and sample storage at 4 C. • Kinetic analysis used BIAevaluation software with bivalent ligand binding model. For chimeric 1H12 with AXL-Strep-His, “heterogeneous ligand” binding model was used due to poor fit with bivalent or monovalent algorithms. • Each antibody dilution was injected twice. Protocol with AXL-Fc Chimera Antigen • The above protocol was used except that the running buffer was HBSEP+, serial 10x dilutions of antibody were from 500 nM in HBSEP+ running buffer and were injected for 180 sec. • Analysis used BIAevaluation software with the bivalent binding model.

[2] = target: T2, Human Axl-Fc chimera (Homo sapiens, UniProt P30530); assay: SPR measurement of antibody affinity, AXL-Fc chimera antigen; assay type: binding; details: for ka, AXL-Fc antigen / kd, AXL-Fc antigen / Kd: HBSEP+ running buffer, bivalent binding model
T2 construct: purchased R&D Systems 154-AL
T2 sequence (P30530 with tags, fused parts or gaps isoform P30530-2 limits assumed): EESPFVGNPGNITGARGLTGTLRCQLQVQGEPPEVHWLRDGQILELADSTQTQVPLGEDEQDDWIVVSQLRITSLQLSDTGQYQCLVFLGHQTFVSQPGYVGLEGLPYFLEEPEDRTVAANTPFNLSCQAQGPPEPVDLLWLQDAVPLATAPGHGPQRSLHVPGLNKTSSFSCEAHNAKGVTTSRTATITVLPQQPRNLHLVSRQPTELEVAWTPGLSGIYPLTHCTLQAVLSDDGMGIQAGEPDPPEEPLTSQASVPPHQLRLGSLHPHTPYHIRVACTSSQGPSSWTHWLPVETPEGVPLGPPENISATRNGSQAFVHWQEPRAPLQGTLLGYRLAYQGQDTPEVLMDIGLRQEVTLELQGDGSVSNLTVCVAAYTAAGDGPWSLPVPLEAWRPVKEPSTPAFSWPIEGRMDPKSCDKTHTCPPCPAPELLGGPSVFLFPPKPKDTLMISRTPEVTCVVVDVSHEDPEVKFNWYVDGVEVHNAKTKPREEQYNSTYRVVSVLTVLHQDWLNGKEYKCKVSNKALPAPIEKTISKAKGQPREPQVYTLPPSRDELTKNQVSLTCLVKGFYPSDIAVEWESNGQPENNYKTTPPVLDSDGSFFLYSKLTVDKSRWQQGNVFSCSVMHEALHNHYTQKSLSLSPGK
Method: as §1, §2, §3

[3] = Protein thermal shift (Tm); assay type: physicochemical; details: 0.5 mg/mL in PBS, HEK293F expression product
Method: Protocol 6: Protein Thermal Shift Protocol
• 96 well optical plate semi-skirted (Starlab cat.L1402-9700). • Protein thermal shift dye kit (Life Technologies cat.446148). • Microamp optical adhesive film (Applied Biosystems) • 7500 Real-Time PCR System (Life Technologies) • Test items: Antibodies from Evitria and Spirogen • Protein thermal shift v1.2 software (Life Technologies)
Protein thermal shift dye (2.5 μL 1:1000 dilution) was added to sample proteins (17.5 μL of 0.5 mg/mL in PBS) in a 96 well optical plate and mixed thoroughly. Every sample was done in quadruplicate. The plate was sealed with a optical adhesive film and bubbles in the wells were removed by centrifugation 1 min at 500 g, then placed on ice. The sealed plate was introduced in the 7500 Real-Time PCR System and subsequently the experiment was set up as follows:
Data analysis and derivation of Tm data were done using the software following the manufacturers instructions.

Row | Molecule | ka, AXL-Strep-His antigen [1] | kd, AXL-Strep-His antigen [1] | ka, AXL-Fc antigen [2] | kd, AXL-Fc antigen [2] | Tm [3] | affinity for Axl-Strep-His compared with Ab1 [1] | Kd [1] | affinity for Axl-Fc compared with Ab1 [2] | Kd [2]
1 | Ab1 (antibody, V domains shown) VH: EVQLVESGGDLVKPGGSLKLSCAASGFTFSSYGMSWVRQTPDKRLEWVATISSGGSYTYYPDSVKGRFTISRDNAKNTLYLQMSSLKSEDTAMYYCARHPIYYTYDDTMDYWGQGTSVTVSS VL: ENVLTQSPAIMAASPGEKVTMTCSASSSVSSGNFHWYQQKPGTSPKLWIYRTSNLASGVPARFSGSGSGTSYSLTISSMEAEDAATYYCQQWSGYPWTFGGGTKLEIK | 13100 M⁻¹ s⁻¹ | 0.000533 s⁻¹ | 30900 M⁻¹ s⁻¹ | 0.000142 s⁻¹ | 69.52 °C | – | – | – | –
2 | Ab2: anti-AXL antibody, VH SEQ ID NO. 2, VL SEQ ID NO. 5, constant region derived from human antibodies (antibody, V domains shown, human constant regions; Synthetic heavy chain variable region 1H12RHA; Synthetic light chain variable region 1H12RKA, 5, constant region derived from human antibodies) VH: MGFKMESQFQVFVFVFLWLSGVDGQVQLVESGGGVVQPGRSLRLSCAASGFTFSSYGMSVRQAPGKGLEWVATISSGGSYTYYPDSVKGRFTISRDNSKNTLYLQMNSLRAEDTAVYYCARHPIYYTYDDTMDYWGQGTTVTVSS VL: MGFKMESQFQVFVFVFLWLSGVDGEIVLTQSPATLSLSPGERATLSCSASSSVSSGNFHWYQQKPGLAPRLLIYRTSNLASGIPDRFSGSGSGTDFTLTISRLEPEDFAVYYCQQWSGYPWTFGPGTKVDIK | 13200 M⁻¹ s⁻¹ | 0.000441 s⁻¹ | 83700 M⁻¹ s⁻¹ | 0.000154 s⁻¹ | 59.71 °C | higher affinity | 33.4 nM | higher affinity | 1.84 nM
3 | Ab3: anti-AXL antibody, VH SEQ ID NO. 2, VL SEQ ID NO. 7, constant region derived from human antibodies (antibody, V domains shown, human constant regions; Synthetic heavy chain variable region 1H12RHA; Synthetic light chain variable region 1H12RKB, 7, constant region derived from human antibodies) VH: MGFKMESQFQVFVFVFLWLSGVDGQVQLVESGGGVVQPGRSLRLSCAASGFTFSSYGMSVRQAPGKGLEWVATISSGGSYTYYPDSVKGRFTISRDNSKNTLYLQMNSLRAEDTAVYYCARHPIYYTYDDTMDYWGQGTTVTVSS VL: MGFKMESQFQVFVFVFLWLSGVDGEIVLTQSPGTLSLSPGERATLSCSASSSVSSGNFHWYQQKPGLAPRLLIYRTSNLASGIPARFSGSGSGTDFTLTISSLEPEDFAVYYCQQWSGYPWTFGGGTKLEIK | 19200 M⁻¹ s⁻¹ | 0.000636 s⁻¹ | 24500 M⁻¹ s⁻¹ | 0.0002 s⁻¹ | 62.05 °C | higher affinity | 33.1 nM | – | 8.5 nM
4 | Ab5: anti-AXL antibody, VH SEQ ID NO. 3, VL SEQ ID NO. 7, constant region derived from human antibodies (antibody, V domains shown, human constant regions; Synthetic heavy chain variable region 1H12RHB; Synthetic light chain variable region 1H12RKB, 7, constant region derived from human antibodies) VH: MGFKMESQFQVFVFVFLWLSGVDGEVQLVESGGGLVQPGGSLRLSCAASGFTFSSYGMSWVRQAPGKGLEWVATISSGGSYTYYPDSVKGRFTISRDNAKNSLYLQMNSLRAEDTAVYYCARHPIYYTYDDTMDYWGQGTLVTVSS VL: MGFKMESQFQVFVFVFLWLSGVDGEIVLTQSPGTLSLSPGERATLSCSASSSVSSGNFHWYQQKPGLAPRLLIYRTSNLASGIPARFSGSGSGTDFTLTISSLEPEDFAVYYCQQWSGYPWTFGGGTKLEIK | 18900 M⁻¹ s⁻¹ | 0.000435 s⁻¹ | 20600 M⁻¹ s⁻¹ | 0.000159 s⁻¹ | 63.06 °C | higher affinity | – | – | –
5 | Ab4: anti-AXL antibody, VH SEQ ID NO. 3, VL SEQ ID NO. 5, constant region derived from human antibodies (antibody, V domains shown, human constant regions; Synthetic heavy chain variable region 1H12RHB; Synthetic light chain variable region 1H12RKA, 5, constant region derived from human antibodies) VH: MGFKMESQFQVFVFVFLWLSGVDGEVQLVESGGGLVQPGGSLRLSCAASGFTFSSYGMSWVRQAPGKGLEWVATISSGGSYTYYPDSVKGRFTISRDNAKNSLYLQMNSLRAEDTAVYYCARHPIYYTYDDTMDYWGQGTLVTVSS VL: MGFKMESQFQVFVFVFLWLSGVDGEIVLTQSPATLSLSPGERATLSCSASSSVSSGNFHWYQQKPGLAPRLLIYRTSNLASGIPDRFSGSGSGTDFTLTISRLEPEDFAVYYCQQWSGYPWTFGPGTKVDIK | 9759 M⁻¹ s⁻¹ | 0.00059 s⁻¹ | 290000 M⁻¹ s⁻¹ | 0.000396 s⁻¹ | 60.32 °C | – | – | higher affinity | –
